Article PMC2811263 (Arteriosclerosis, thrombosis, and vascular biology, 2009)

Experiments:
[1] = target: T1, wild-type human GPIHBP1 (glycosylphosphatidylinositol-anchored high-density lipoprotein-binding protein 1) (human, UniProt Q8IV16 21-151); assay: binding of added LPL to transfected cells, bound LPL quantified by ELISA
T1 sequence (looked up): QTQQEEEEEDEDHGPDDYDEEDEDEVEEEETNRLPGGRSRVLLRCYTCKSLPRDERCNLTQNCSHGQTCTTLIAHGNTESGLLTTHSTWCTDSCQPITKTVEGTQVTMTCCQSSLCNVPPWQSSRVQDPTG

wild-type mouse GPIHBP1 = target: T2, wild-type mouse GPIHBP1 (mouse, UniProt Q9D1N2 23-198); assay: as above
T2 sequence (looked up): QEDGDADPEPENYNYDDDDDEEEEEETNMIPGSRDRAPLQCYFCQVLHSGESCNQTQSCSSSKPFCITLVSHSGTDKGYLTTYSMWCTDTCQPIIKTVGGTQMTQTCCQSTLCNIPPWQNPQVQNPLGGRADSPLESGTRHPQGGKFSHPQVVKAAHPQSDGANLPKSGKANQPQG

fold more LPL bound than by cells expressing GPIHBP1-Q115P [1]: 39.8 fold
fold more LPL bound than by cells expressing GPIHBP1-Q114P (wild-type mouse GPIHBP1): 20.2 fold
B1: avian lipoprotein lipase (LPL) (enzyme, UniProt P11602 26-490, looked up)
chain: SDPEAEMNFEGIESKFSLRTPAEPDEDVCYLVPGQMDSLAQCNFNHTSKTFVVIHGWTVTGMYESWVPKLVDALYKREPDSNVIVVDWLVRAQQHYPVSAAYTKLVGKDVAMFIDWMEEKFNYPLNNVHLLGYSLGAHAAGIAGSLTKKKVNRITGLDPAGPTFEYADAPIRLSPDDADFVDVLHTYTRGSPDRSIGIQKPVGHIDIYPNGGGFQPGCNLGEALRLIAEKGFSDVDQLVKCSHERSIHLFIDSLLYEEKPSMAYRCNTKEAFEKGLCLSCRKNRCNNLGYKVNRVRTKRNTKMYLKTRAQMPYKVFHYQVKIHFFGKTNVTKVDQPFLISLYGTLDESENIPFTLPEVSSNKTFSFLIYTEVDIGDLLMLKLQWEKDTFFSWSDWWTPFAFTIQRVRVKSGETQKKVVFCSRDGSSRLGKGEEAAIFVKCLEQPVSRKRGGAKKASKENSAHESA
